The assay concerns the target human C5a receptor (human) (UniProt P21730). As to the kind of experiment: cell-based or functional assay.

The results in this text go back to patent US20210163946A1.

Sequence of human C5a receptor (human) (P21730 whole entry): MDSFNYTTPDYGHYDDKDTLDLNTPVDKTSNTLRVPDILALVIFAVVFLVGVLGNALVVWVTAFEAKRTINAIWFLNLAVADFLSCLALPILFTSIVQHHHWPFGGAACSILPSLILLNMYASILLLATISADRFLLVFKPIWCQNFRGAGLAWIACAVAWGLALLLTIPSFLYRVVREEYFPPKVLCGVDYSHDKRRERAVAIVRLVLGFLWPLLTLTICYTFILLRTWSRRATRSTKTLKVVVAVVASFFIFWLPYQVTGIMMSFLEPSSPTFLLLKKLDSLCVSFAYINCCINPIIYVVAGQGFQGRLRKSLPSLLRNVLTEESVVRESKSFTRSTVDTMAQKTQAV

In turn, “mouse C5a (from UniProt P06684 679-755) (ligand)” displayed a half-maximal effective concentration (EC50) of chemotaxis of BA/F3/huC5aR cells of 0.3 nM. On to “recombinant human C5a (from UniProt P01031 678-751) (ligand)”, for which the half-maximal effective concentration (EC50) of chemotaxis of BA/F3/huC5aR cells came to 0.1 nM.
